Measured values reported in US20220088146A1, “Melanocortin Receptor-Specific Peptide Formulations and Methods for Gastrointestinal Tract-Specific Delivery” (Palatin Technologies, Inc., priority 2018, published 2022).
Bridge positions count the residues as written; N and C are the ends. Square brackets hold non-standard residues; d marks the D form. dPhe(3-Cl) = N[C@H](Cc1cccc(Cl)c1)C(=O)O; dPhe(4-Cl) = N[C@H](Cc1ccc(Cl)cc1)C(=O)O; dPhe(4-Me) = Cc1ccc(C[C@@H](N)C(=O)O)cc1; dPhe(2-Cl) = N[C@H](Cc1ccccc1Cl)C(=O)O; dPhe(4-F) = N[C@H](Cc1ccc(F)cc1)C(=O)O; dPhe(2-F) = N[C@H](Cc1ccccc1F)C(=O)O; Nle = CCCC[C@H](N)C(=O)O; Orn = NCCC[C@H](N)C(=O)O; Dab = NCC[C@H](N)C(=O)O

Legend:
[1] = biological target: human melanocortin-1 receptor (human) (UniProt Q01726); test: cell-based or functional assay
human melanocortin-1 receptor (human), sequence (Q01726 whole entry): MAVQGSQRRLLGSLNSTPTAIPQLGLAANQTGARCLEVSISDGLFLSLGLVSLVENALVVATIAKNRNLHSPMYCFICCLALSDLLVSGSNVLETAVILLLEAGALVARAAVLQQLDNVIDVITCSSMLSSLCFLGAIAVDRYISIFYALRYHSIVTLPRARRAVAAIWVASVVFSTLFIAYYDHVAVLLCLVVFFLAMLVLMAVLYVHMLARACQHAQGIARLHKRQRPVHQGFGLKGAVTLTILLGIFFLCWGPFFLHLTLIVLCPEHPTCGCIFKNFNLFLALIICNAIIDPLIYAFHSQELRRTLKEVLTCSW

[2] = biological target: human melanocortin-4 receptor (human) (UniProt P32245); test: cell-based or functional assay
human melanocortin-4 receptor (human), sequence (P32245 whole entry): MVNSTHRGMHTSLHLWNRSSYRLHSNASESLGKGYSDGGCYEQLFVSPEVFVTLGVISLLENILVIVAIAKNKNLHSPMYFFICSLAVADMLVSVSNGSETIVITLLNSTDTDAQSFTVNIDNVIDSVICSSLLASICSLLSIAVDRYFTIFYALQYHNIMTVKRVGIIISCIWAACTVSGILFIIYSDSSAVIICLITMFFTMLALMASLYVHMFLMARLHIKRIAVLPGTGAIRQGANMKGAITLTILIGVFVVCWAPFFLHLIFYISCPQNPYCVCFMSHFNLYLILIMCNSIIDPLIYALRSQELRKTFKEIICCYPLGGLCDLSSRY

melanocortin-2 receptor = melanocortin-2 receptor (UniProt Q01718); test: cell-based or functional assay
melanocortin-2 receptor, sequence (Q01718 whole entry): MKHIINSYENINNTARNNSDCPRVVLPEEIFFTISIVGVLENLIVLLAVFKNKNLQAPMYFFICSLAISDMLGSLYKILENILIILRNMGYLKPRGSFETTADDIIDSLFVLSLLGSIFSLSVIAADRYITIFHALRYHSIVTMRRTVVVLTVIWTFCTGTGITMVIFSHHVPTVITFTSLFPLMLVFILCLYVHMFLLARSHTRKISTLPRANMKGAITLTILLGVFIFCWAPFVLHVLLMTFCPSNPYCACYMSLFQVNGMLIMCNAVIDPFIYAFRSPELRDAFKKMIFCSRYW

melanocortin-3 receptor = melanocortin-3 receptor (UniProt P41968); test: cell-based or functional assay
melanocortin-3 receptor, sequence (P41968 whole entry): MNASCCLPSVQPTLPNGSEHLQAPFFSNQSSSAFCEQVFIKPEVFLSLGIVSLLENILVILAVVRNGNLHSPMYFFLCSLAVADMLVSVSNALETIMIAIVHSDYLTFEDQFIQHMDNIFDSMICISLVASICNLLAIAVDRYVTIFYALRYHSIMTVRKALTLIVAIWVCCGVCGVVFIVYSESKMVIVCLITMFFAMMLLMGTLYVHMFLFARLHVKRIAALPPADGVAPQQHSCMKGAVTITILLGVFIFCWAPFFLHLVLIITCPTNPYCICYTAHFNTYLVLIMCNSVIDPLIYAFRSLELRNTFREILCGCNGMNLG

melanocortin-5 receptor = melanocortin-5 receptor (UniProt P33032); test: cell-based or functional assay
melanocortin-5 receptor, sequence (P33032 whole entry): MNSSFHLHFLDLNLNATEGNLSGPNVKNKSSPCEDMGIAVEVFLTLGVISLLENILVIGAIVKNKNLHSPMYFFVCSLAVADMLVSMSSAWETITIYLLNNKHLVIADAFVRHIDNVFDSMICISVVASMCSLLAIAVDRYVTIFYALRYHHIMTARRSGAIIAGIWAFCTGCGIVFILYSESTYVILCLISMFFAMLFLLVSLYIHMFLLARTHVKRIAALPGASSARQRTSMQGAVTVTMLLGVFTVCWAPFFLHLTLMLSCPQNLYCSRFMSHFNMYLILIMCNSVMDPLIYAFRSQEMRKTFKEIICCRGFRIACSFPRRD

[3] = biological target: human melanocortin-4 receptor (human) (UniProt P32245); test: [I125]-NDP-α-MSH competition, hMC4r HEK-293 membranes
[4] = biological target: human melanocortin-1 receptor (human) (UniProt Q01726); test: [I125]-NDP-α-MSH competition, hMC1r HEK-293 membranes

Row | MC-1 Emax (average; cAMP HBL) [1] [%] | Ki [3] [nM] | MC-1 EC50 (average; cAMP HBL) [1] [nM] | Ki [4] [nM] | Substance | further results
1 |  |  |  |  | ACTH (adrenocorticotropic hormone) (from UniProt P01189 138-176) (ligand) | Functional - CEREP (EC50; nM) [1]: 980 nM; Functional - CEREP (EC50; nM) [2]: 350 nM; Functional - CEREP (EC50; nM) (melanocortin-2 receptor): 4.8 nM; Functional - CEREP (EC50; nM) (melanocortin-3 receptor): 390 nM; Functional - CEREP (EC50; nM) (melanocortin-5 receptor): 4100 nM
2 | 75 | 535 |  |  | Ac-D-Phe-cyclo(Glu-His-D-Phe-Arg-Dab)-Trp-NH2 (peptide) | 
3 | 92 | 380 | 0.009 | 0.015 | Ac-Nle-cyclo(Dab-His-D-Phe-Arg-Dab)-Trp-NH2 (peptide) | 
4 | 78 | 325 | 0.006 | 0.025 | Ac-Nle-cyclo(Dab-His-D-Phe-Arg-Dap)-Trp-NH2 (peptide) | 
5 | 85 | 860 | 0.016 | 0.065 | Ac-Nle-cyclo(Dap-His-D-Phe-Arg-Dab)-Trp-NH2 (peptide) | 
6 | 70 | 680 | 0.007 | 0.03 | Ac-Nle-cyclo(Dap-His-D-Phe-Arg-Dap)-Trp-NH2 (peptide) | 
7 | 86 | 455 |  |  | Ac-Nle-cyclo(Glu-Ala-D-Phe-Arg-Dab)-Trp-NH2 (peptide) | 
8 | 100 | 20 |  |  | Ac-Nle-cyclo(Glu-Arg-D-Phe-Arg-Dab)-Trp-NH2 (peptide) | 
9 | 97 | 98 | 0.065 | 0.45 | Ac-Nle-cyclo(Glu-Cit-D-Phe-Arg-Dab)-Trp-NH2 (peptide) | 
10 | 108 | 98 | 0.008 | 0.05 | Ac-Nle-cyclo(Glu-Dab-D-Phe-Arg-Dab)-Trp-NH2 (peptide) | 
11 | 73 | 2 | 0.008 | 0.1 | Ac-Nle-cyclo(Glu-His-D-Phe-Arg-Dab)-D-Nal 1-NH2 (peptide) | 
12 | 69 | 0.095 | 0.005 | 0.02 | Ac-Nle-cyclo(Glu-His-D-Phe-Arg-Dab)-D-Nal 2-NH2 (peptide) | 
13 | 93 | 33 | 0.025 | 0.55 | Ac-Nle-cyclo(Glu-His-D-Phe-Arg-Dab)-D-Trp-NH2 (peptide) | 
14 | 72 | 0.75 | 0.002 | 0.005 | Ac-Nle-cyclo(Glu-His-D-Phe-Arg-Dab)-Nal 1-NH2 (peptide) | 
15 | 83 | 3 |  | 0.01 | Ac-Nle-cyclo(Glu-His-D-Phe-Arg-Dab)-Nal 2-NH2 (peptide) | MC-1 EC50 (average; cAM PHBL) [1]: 0.004 nM
16 | 95 | 110 |  |  | Ac-Nle-cyclo(Glu-His-D-Phe-Arg-Dab)-Trp-NH2 (peptide) | 
17 | 79 | 10000 |  | 2 | Ac-Nle-cyclo(Glu-His-D-Phe-Arg-Dab)-Trp-OH (peptide) | 
18 | 91 | 510 |  |  | Ac-Nle-cyclo(Glu-His-D-Phe-Arg-Dap)-Trp-NH2 (peptide) | Functional - CEREP (EC50; nM) [2]: 510 nM

Row | MC-1 Emax (average; cAMP HBL) [1] [%] | Ki [3] [nM] | MC-1 EC50 (average; cAMP HBL) [1] [nM] | Ki [4] [nM] | Substance | further results
19 | 81 | 4700 | 0.107 | 1 | Ac-Nle-cyclo(Glu-His-D-Phe-Arg-Dap)-Trp-OH (peptide) | 
20 | 91 | 295 |  |  | Ac-Nle-cyclo(Glu-His-D-Phe-Arg-Orn)-Trp-NH2 (peptide) | 
21 | 108 | 95 |  |  | Ac-Nle-cyclo(Glu-Lys-D-Phe-Arg-Dab)-Trp-NH2 (peptide) | 
22 | 97 | 10000 | 1 | 40 | Ac-Nle-cyclo(Glu-Orn-D-Phe(3,4-F)-Arg-Dab)-NH2 (peptide) | 
23 | 99 | 10000 | 0.12 | 2 | Ac-Nle-cyclo(Glu-Orn-D-Phe(4-OMe)-Arg-Dab)-NH2 (peptide) | 
24 | 109 | 45 | 0.002 | 0.015 | Ac-Nle-cyclo(Glu-Orn-D-Phe-Arg-Dab)-Trp-NH2 (peptide) | 
25 |  | 10000 |  | 2250 | Ac-Nle-cyclo(Glu-Pro-D-Phe-Arg-Dab)-NH2 (peptide) | 
26 | 73 | 10000 | 44 | 645 | Ac-[Nle]EH[dF]A[Dab]-NH2 (lactam 2-6) | MC-1 EC50 (average; cAMPHBL) [1]: 44 nM
27 | 85 | 10000 | 0.32 | 7 | Ac-[Nle]EH[dF]R[Dab]-NH2 (lactam 2-6) | MC-1 EC50 (average; cAM PHBL) [1]: 0.32 nM
28 | 51 | 10000 |  | 10000 | Ac-[Nle]EH[dF][Dab]-NH2 (lactam 2-5) | 
29 | 102 | 3620 | 0.5 | 4 | Ac-[Nle]E[Orn][dF]R[Dab]-NH2 (lactam 2-6) | 
30 | 88 | 10000 | 1 | 30 | Ac-[Nle]E[Orn][dPhe(2-Cl)]R[Dab]-NH2 (lactam 2-6) | 
31 | 95 | 10000 | 0.8 | 18 | Ac-[Nle]E[Orn][dPhe(2-F)]R[Dab]-NH2 (lactam 2-6) | 
32 | 86 | 10000 | 2 | 35 | Ac-[Nle]E[Orn][dPhe(3-Cl)]R[Dab]-NH2 (lactam 2-6) | 
33 | 100 | 1240 | 0.1 | 2 | Ac-[Nle]E[Orn][dPhe(4-Cl)]R[Dab]-NH2 (lactam 2-6) | 
34 | 102 | 10000 | 1 | 20 | Ac-[Nle]E[Orn][dPhe(4-F)]R[Dab]-NH2 (lactam 2-6) | 
35 | 96 | 10000 | 0.076 | 3 | Ac-[Nle]E[Orn][dPhe(4-Me)]R[Dab]-NH2 (lactam 2-6) | 
